Laboratory results published in article PMC11926245 (Nature Communications, 2025).

Legend:
[1] = target: T1, DNAJC12-F193G (human, UniProt Q9UKB3-1 1-198, F193G); test: BLI; biotinylated TH or TH variant immobilised on streptavidin sensors; DNAJC12 or variant 0.01-4 μM in solution; PBS, 0.02% Tween-20, 0.5 mg/mL BSA, 25 °C; responses fitted to a one-site hyperbola; details: both partners purified
T1 construct: source: E. coli BL21-CodonPlus(DE3)-RIL, purified (HisTrap, TEV cleavage, TALON, amylose, SEC); not shown: His6, N-terminal, cleaved; MBP, N-terminal, cleaved
T1 sequence (Q9UKB3 whole entry F193G): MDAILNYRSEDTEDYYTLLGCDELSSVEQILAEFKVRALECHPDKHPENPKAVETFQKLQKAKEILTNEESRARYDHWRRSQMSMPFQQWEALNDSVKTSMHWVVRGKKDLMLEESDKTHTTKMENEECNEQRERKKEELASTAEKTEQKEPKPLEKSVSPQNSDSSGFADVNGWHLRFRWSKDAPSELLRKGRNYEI

[2] = target: the molecule itself; test: SEC-MALS; Superdex 200 Increase, 20 mM Na-Hepes pH 7.0, 200 mM NaCl; DNAJC12 3 mg/mL, TH, TH:DNAJC12 complex, TH(1-158) and TH(155-497) 2 mg/mL

Row | Kd [1] | Binder | stoichiometry N [2]
1 | 1180 nM | Tyrosine hydroxylase, wild-type (hTH1) (enzyme, biotinylated with EZ-Link NHS-PEG4-Biotin for BLI only) not shown | –
2 | – | TH regulatory domain, TH(1-158) (domain or fragment, human, UniProt P07101-3 1-158, looked up, biotinylated with EZ-Link NHS-PEG4-Biotin for BLI only) MPTPDATTPQAKGFRRAVSELDAKQAEAIMSPRFIGRRQSLIEDARKEREAAVAAAAAAVPSEPGDPLEAVAFEEKEGKAVLNLLFSPRATKPSALSRAVKVFETFEAKIHHLETRPAQRPRAGGPHLEYFVRLEVRRGDLAALLSGVRQVSEDVRSP | 2
3 | – | TH-R202H (TH-p.R202H), variant associated with TH deficiency (enzyme, biotinylated with EZ-Link NHS-PEG4-Biotin for BLI only) not shown | 4
4 | – | TH catalytic and oligomerization domains, TH(155-497) (domain or fragment, biotinylated with EZ-Link NHS-PEG4-Biotin for BLI only) not shown | 4
